± gives the uncertainty stated by the source.
Experiment: self-splicing fitness, log relative to wild type (ln ratio); higher = more splicing; Tetrahymena group I intron in knt gene, E. coli kanamycin selection, DiMSum; sequences stand for … in CUCUCU…GGAGGGAAAAGUUAUCAGGCAUGCACCUGGUAGCUAGUCUUUAAACCAAUAGAUUGCAUCGGUUUAAAAGGCAAGACCGUCAAAUUGCGGGAAAGGGGUCAACAGCCGUUCAGUACCAAGUCUCAGGGGAAACUUUGAGAUGGCCUUGCAAAGGGUAUGGUAAUAAGCUGACGGACAUGGUCCUAACCACGCAGCCAAGUCCUAAGUCAACAGAUCUUCUGUUGAUAUGGAUGCAGUUCACAGACUAAAUGUCGGUCGGGGAAGAUGUAUUCUUCUCAUAAGAUAUAGUCGGACCUCUCCUUAAUGGGAGCUAGCGGAUGAAGUGAUGCAACACUGGAGCCGCUGGGAACUAAUUUGUAUGCGAAAGUAUAUUGAUUAGUUUUGGAGUACUCGUGGUCG
Method in brief: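 Pooled colonies went to amplicon sequencing on an Illumina HiSeq 2500 after six replicate transformations. The plates were LB agar with 100 μg/mL carbenicillin, 50 μM IPTG and 0.2% rhamnose, with or without 25 μg/mL kanamycin, incubated overnight at 37°C or 30°C. The E. coli BL21(DE3) library had all eight P1ex-region intron nucleotides randomised, the intron placed in the knt kanamycin-resistance gene on pET-22b(+). DiMSum fitness is the error-weighted combination of replicate fold changes, kanamycin against none, normalised to wild type.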

Sequence	self-splicing fitness (ln) (30 °C)	self-splicing fitness (ln) (37 °C)
AUUGAGCAAUAUUACGCGUC	-3.26 ± 0.19	-1.73 ± 0.2
AUUGAGCAAUAUUACGGCGG	-3.01 ± 0.19	-1.05 ± 0.38
AUUGAGCAAUAUUACGUAAC	-1.3 ± 0.3	-1.53 ± 0.31
AUUGAGCAAUAUUACGUGGU	-3.28 ± 0.21	-3.12 ± 0.43
AUUGAGCAAUAUUACGUUAU	-2.61 ± 0.2	-1.86 ± 0.24
AUUGAGCAAUAUUACGUUGG	-3.62 ± 0.36	-0.682 ± 0.17
AUUUAGCAAUAUUACGAAGU	-1.91 ± 0.23	-1.24 ± 0.18
AUUUAGCAAUAUUACGACCU	0.0405 ± 0.29	0.114 ± 0.29
AUUUAGCAAUAUUACGACGA	-0.672 ± 0.15	0.131 ± 0.18
AUUUAGCAAUAUUACGACUA	-0.0865 ± 0.18	-0.454 ± 0.15
AUUUAGCAAUAUUACGAGAU	-3.55 ± 0.4	-1.41 ± 0.28
AUUUAGCAAUAUUACGAGGA	-2.7 ± 0.49	-2.18 ± 0.4
AUUUAGCAAUAUUACGAUCU	0.177 ± 0.13	0.0446 ± 0.11
AUUUAGCAAUAUUACGAUUC	-1.73 ± 0.22	-0.798 ± 0.26
AUUUAGCAAUAUUACGCACG	-1.9 ± 0.28	-0.778 ± 0.2
AUUUAGCAAUAUUACGCGAG	-2.19 ± 0.22	-0.658 ± 0.2
AUUUAGCAAUAUUACGCGUG	-1.2 ± 0.14	-0.97 ± 0.14
AUUUAGCAAUAUUACGCUCC	-1.4 ± 0.47	
AUUUAGCAAUAUUACGCUCG	-0.131 ± 0.1	0.715 ± 0.15
AUUUAGCAAUAUUACGCUCU	0.51 ± 0.27	0.235 ± 0.44
AUUUAGCAAUAUUACGCUUU	-2.7 ± 0.16	-1.2 ± 0.11
AUUUAGCAAUAUUACGGCAG	-2.47 ± 0.14	-0.321 ± 0.15
AUUUAGCAAUAUUACGGGCA	-1.56 ± 0.19	-0.452 ± 0.26
AUUUAGCAAUAUUACGGGCU	-2.71 ± 0.19	-0.78 ± 0.16
AUUUAGCAAUAUUACGGGUG	-3.24 ± 0.14	-1.57 ± 0.14
AUUUAGCAAUAUUACGGUGA	-1.17 ± 0.27	-1.7 ± 0.19

Sequence	self-splicing fitness (ln) (30 °C)	self-splicing fitness (ln) (37 °C)
AUUUAGCAAUAUUACGUAUU	-3 ± 0.16	-1.47 ± 0.19
AUUUAGCAAUAUUACGUCAG	-3.7 ± 0.28	-0.451 ± 0.2
AUUUAGCAAUAUUACGUCGA	-2.64 ± 0.29	-0.501 ± 0.19
AUUUAGCAAUAUUACGUCUC	-3.59 ± 0.37	-2.18 ± 0.3
AUUUAGCAAUAUUACGUGCG	-1.82 ± 0.091	-0.316 ± 0.12
AUUUAGCAAUAUUACGUGGC	-3.57 ± 0.43	-1.69 ± 0.32
AUUUAGCAAUAUUACGUGUG	-2.36 ± 0.11	-1.44 ± 0.11
AUUUAGCAAUAUUACGUUCG	-1.39 ± 0.11	-0.0499 ± 0.13
AUUUAGCAAUAUUACGUUCU	-0.544 ± 0.085	-0.0441 ± 0.12
CAAAAGCAAUAUUACGAACA	-1.95 ± 0.14	-0.613 ± 0.13
CAAAAGCAAUAUUACGAGGU	-3.46 ± 0.15	-2.91 ± 0.21
CAAAAGCAAUAUUACGAUCC	-2.58 ± 0.22	-1.26 ± 0.24
CAAAAGCAAUAUUACGCAUU	-3.45 ± 0.18	-3.29 ± 0.23
CAAAAGCAAUAUUACGCGAC	-3.52 ± 0.34	-4.08 ± 0.42
CAAAAGCAAUAUUACGCGUC	-3.72 ± 0.24	-1.86 ± 0.18
CAAAAGCAAUAUUACGGAAG	-1.23 ± 0.049	-0.438 ± 0.071
CAAAAGCAAUAUUACGGAGG	-0.939 ± 0.096	-0.844 ± 0.13
CAAAAGCAAUAUUACGGCCG	0.257 ± 0.11	0.574 ± 0.16
CAAAAGCAAUAUUACGGGAG	-2.05 ± 0.074	-0.972 ± 0.079
CAAAAGCAAUAUUACGGGGA	-3.26 ± 0.15	-2.36 ± 0.15
CAAAAGCAAUAUUACGUCAC	-3.63 ± 0.28	-2.06 ± 0.2
CAAAAGCAAUAUUACGUGGC	-3.26 ± 0.13	-2.6 ± 0.2
CAAAAGCAAUAUUACGUGGG	-3.26 ± 0.12	-2.6 ± 0.12
CAAAAGCAAUAUUACGUUCC	-2.34 ± 0.33	-2.17 ± 0.36
CAACAGCAAUAUUACGAAAU	-2.7 ± 0.12	-2.47 ± 0.2
CAACAGCAAUAUUACGAACA	-2.43 ± 0.099	-1.17 ± 0.075

Sequence	self-splicing fitness (ln) (30 °C)	self-splicing fitness (ln) (37 °C)
CAACAGCAAUAUUACGAACU	-3.29 ± 0.15	-0.988 ± 0.11
CAACAGCAAUAUUACGAAGA	-2.55 ± 0.17	-2.35 ± 0.17
CAACAGCAAUAUUACGAAUU	-4.19 ± 0.26	-1.84 ± 0.12
CAACAGCAAUAUUACGACUC	-1.74 ± 0.11	-0.579 ± 0.12
CAACAGCAAUAUUACGAUAC	-3.29 ± 0.28	-2.91 ± 0.37
CAACAGCAAUAUUACGCGUA	-1.55 ± 0.093	-1.06 ± 0.088
CAACAGCAAUAUUACGCUAG	-3.53 ± 0.13	-2.6 ± 0.14
CAACAGCAAUAUUACGCUCU	-1.33 ± 0.079	-0.581 ± 0.1
CAACAGCAAUAUUACGGAGA	-3.07 ± 0.2	-1.82 ± 0.2
CAACAGCAAUAUUACGGCAU	-3.38 ± 0.12	-1.11 ± 0.09
CAACAGCAAUAUUACGGCCC		-2.06 ± 0.33
CAACAGCAAUAUUACGGCGG	-0.393 ± 0.056	0.0944 ± 0.082
CAACAGCAAUAUUACGGGAC	-4.18 ± 0.17	-2.99 ± 0.16
CAACAGCAAUAUUACGGUCG	-0.273 ± 0.041	0.0819 ± 0.056
CAACAGCAAUAUUACGUAUA	-2.76 ± 0.12	-1.55 ± 0.11
CAACAGCAAUAUUACGUCAG	-0.334 ± 0.053	-0.55 ± 0.066
CAACAGCAAUAUUACGUCGU	-3.65 ± 0.12	-2.16 ± 0.11
CAACAGCAAUAUUACGUGAA	-1.36 ± 0.056	-1.62 ± 0.1
CAACAGCAAUAUUACGUGCC	-3.31 ± 0.2	-1.59 ± 0.15
CAACAGCAAUAUUACGUGGU	-4.16 ± 0.12	-2.01 ± 0.096
CAAGAGCAAUAUUACGACUC	-2.72 ± 0.24	-1.84 ± 0.27
CAAGAGCAAUAUUACGACUG	-1.57 ± 0.12	-1.19 ± 0.19
CAAGAGCAAUAUUACGAGAU	-3.29 ± 0.29	-2.8 ± 0.28
CAAGAGCAAUAUUACGAGGU	-4.09 ± 0.24	-2.71 ± 0.23
